Test results reported in patent publication US9371393B2, “Class I anti-CEA antibodies and uses thereof” (Immunomedics, Inc., priority 2009, dated 2016).

T1: ^125I-CEA (Homo sapiens, UniProt P06731)
T1 construct: purchased ROCHE
T1 sequence (P06731 35-676): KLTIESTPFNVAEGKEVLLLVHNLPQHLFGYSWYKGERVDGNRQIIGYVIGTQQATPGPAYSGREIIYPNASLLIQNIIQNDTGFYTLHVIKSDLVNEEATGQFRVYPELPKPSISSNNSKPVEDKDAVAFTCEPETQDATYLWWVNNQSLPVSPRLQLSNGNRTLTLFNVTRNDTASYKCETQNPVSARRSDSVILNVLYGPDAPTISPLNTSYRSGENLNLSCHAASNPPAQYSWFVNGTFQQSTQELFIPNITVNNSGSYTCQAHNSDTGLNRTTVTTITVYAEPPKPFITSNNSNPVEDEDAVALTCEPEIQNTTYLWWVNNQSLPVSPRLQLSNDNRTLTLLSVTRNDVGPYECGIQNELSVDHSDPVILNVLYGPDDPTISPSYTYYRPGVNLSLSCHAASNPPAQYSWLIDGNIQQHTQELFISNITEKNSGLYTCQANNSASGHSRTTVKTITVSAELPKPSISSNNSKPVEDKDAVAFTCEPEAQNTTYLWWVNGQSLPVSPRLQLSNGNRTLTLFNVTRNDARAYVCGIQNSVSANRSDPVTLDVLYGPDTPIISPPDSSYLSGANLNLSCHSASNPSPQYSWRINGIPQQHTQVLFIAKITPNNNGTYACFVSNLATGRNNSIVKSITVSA

B1: MN-15: murine Class I anti-CEA MAb, IgG1 kappa, binds A1B1 domain of CEACAM5 and CEACAM6 (antibody, V domains shown)
VL: DIQLTQSPAIMSASPGEKVTMTCSASSRVSYIHWYQQKSGTSPKRWIYGTSTLASGVPARFSGSGSGTSYSLTISSMEAEDAATYYCQQWSYNPPTFGAGTKLELKR
VH: EVRLVESGGGLVQGPGSLRLSCAASGFALTDYYMSWVRQSPGKTLEWLGFIANKANGHTTDYSPSVKGRFTISRDNSQTILYLQMNTLRTEDSATYYCARDMGIRWNFDVWGQGTTVTVSS
B2: MN-15 Fab′: monovalent Fab′ fragment of murine MN-15 (antibody, V domains shown)
VL: DIQLTQSPAIMSASPGEKVTMTCSASSRVSYIHWYQQKSGTSPKRWIYGTSTLASGVPARFSGSGSGTSYSLTISSMEAEDAATYYCQQWSYNPPTFGAGTKLELKR
VH: EVRLVESGGGLVQGPGSLRLSCAASGFALTDYYMSWVRQSPGKTLEWLGFIANKANGHTTDYSPSVKGRFTISRDNSQTILYLQMNTLRTEDSATYYCARDMGIRWNFDVWGQGTTVTVSS

How the values were obtained:
[1] = target: T1, ^125I-CEA; assay: ROCHE 125I-CEA radioimmunoassay (RIA); assay type: binding; settings: 0.01 and 0.10 M NH4 acetate buffer
Experimental: Hybridoma supernatants were screened for CEA reactive antibody by the ROCHE® ^125I-CEA radioimmunoassay (RIA) in 0.01 and 0.10 M NH4 acetate buffer. Positive clones were recloned. The granulocyte reactivity of CEA-reactive MAb was determined by whole-blood indirect fluorescent flow cytometric analysis (Sharkey et al. Cancer Res., 1990, 50:2823-31). Two MAb with properties similar to those of NP-2 and NP-3, designated MN-2 and MN-6, were selected for additional development.

[2] = system: MCF-7 adhesion to fibronectin; assay: Adhesion to extracellular matrix proteins assay, MCF-7; assay type: cell-based, human
Experimental: Adhesion to extracellular matrix proteins assay—The assay was done using the CYTOMATRIX™ screening kit from CHEMICON® (Kit #ECM205, Temecula, Calif.). The kit contains 96-well plates with strips coated with fibronectin, vitronectin, laminin, collagen-I, or collagen-IV. Subconfluent cell cultures were used for these studies. Cells (1×10^6 cells/mol) were seeded onto coated substrate and incubated at 37° C. for 1 hour in a CO2 incubator in PBS containing Ca^2+/Mg^2+ (200 μL per well). Adherent cells were fixed and stained. The plate was washed to remove unadhered cells and stained with 100 μL per well of MTS (Cell Titer Aq 96, PROMEGA®, Madison, Wis.) for 5 minutes at room temperature. Excess stain was removed with three PBS washes. Solubilization buffer [100 μL of a 50:50 mixture of 0.1 mol/L NaH2PO4 (pH 4.5) and 50% ethanol] was added to each well. Relative attachment was determined using absorbance readings (A540 nm-A570 nm).

[3] = system: MCA38cea (human CEA-transfected line) adhesion to HUVEC; assay: Endothelial cell adhesion assay, MCA38cea; assay type: cell-based, murine; settings: without antibody 11.68±0.77%
Experimental: Percentage adhesion of various tumor cells with varying amounts of expressed CEACAM5 and CEACAM6 to HUVEC cells in the absence or presence of MN-15 Fab′, MN-3 Fab′, or Ag8 Fab′ control. Cells were labeled with 1 μCi/mL of ^3H-thymidine and added to HUVEC cultures and incubated for 30 minutes at 37° C. Samples were washed thrice with PBS to remove unattached cells. Attached tumor cells were solubilized with 0.1 N NaOH and radioactivity was measured in a B-scintillation counter. The cpm attached/total cpm added (attaching potential) was determined. Results of a typical study are presented. Cell lines used include BT-20 (CEACAM5+/CEACAM6+), MCF-7 (CEACAM5−/CEACAM6+), HT-29 (CEACAM5−/CEACAM6+), Moser (CEACAM5+/CEACAM6−), MCA38cea (CEACAM5+/CEACAM6−), and MCA38 (CEACAM5−/CEACAM6−).
Endothelial cell adhesion assay—Human umbilical vein endothelial cells (HUVEC; Cambrex, San Diego, Calif.) were grown in collagen-coated dishes in EGM Media in a humidified atmosphere with 5% CO2 at 37° C. At passages 2 to 5, cells were plated at a density of 4×10^4 cells per well in 96-well plates 24 hours before the assay. Interleukin-1β (IL-1β, 1 ng/mol) was added 4 hours before the assay. […] Attached cells were solubilized with 0.1 N NaOH and radioactivity was measured in a β scintillation counter. The cpm attached/total cpm added (attaching potential) was determined.

[4] = system: MCF-7 cells; assay: Collagen-based invasion assay, MCF-7; assay type: cell-based, human; settings: 10% FBS chemoattractant, 72-hour incubation
Experimental: (§1) Collagen-based invasion assay—The assay was done using CHEMICON® Kit (#ECM551, MILLIPORE®, Billerica, Mass.). Tumor cells at 80% confluence and were serum-starved for 18 to 24 hours before the assay was used. Cells were harvested with 5 mol of 2 mmol/L EDTA/PBS per 100-mm dish and incubated at 37° C. for 5 to 15 minutes. Cells were collected into 10 to 20 mol of quenching medium (serum-free DMEM containing 5% BSA) to inactivate trypsin/EDTA from the harvesting buffer. Cells were pelleted, resuspended in quenching medium (1×10^6 cells/mol), and appropriate antibody Fabs were added to individual cell aliquots. Cell invasion potential was determined as follows. Baseline invasion and invasion in the presence of a chemoattractant (10% FBS) were measured after a 72-hour incubation period at 37° C. in a 5% CO2 incubator. The bottom side of the collagen-coated polycarbonate membrane insert of the invasion chamber was placed in 400 μL of cell stain for 20 minutes at room temperature and washed. The dye was extracted and transferred into a 96-well microtiter plate for colorimetric measurements (A560 nm).

[5] = system: BXPC3 cells; assay: Collagen-based invasion assay, BXPC3; assay type: cell-based, human; settings: 10% FBS chemoattractant, 72-hour incubation
Experimental: as §1

Row | Molecule | ion sensitivity of CEA binding / reactivity with ion-sensitive CEA determinant [1] | decrease of adhesion to fibronectin [2] [%] | endothelial cell binding [3] [%] | reduction in cell invasion [4] [%] | reduction in cell invasion [5] [%]
1 | B1 | binding to epitopes of the ion-sensitive CEA determinant | 29 |  |  | 
2 | B2 |  |  | 5.53±1.15 | 77 | 44
